Earlier results, collected in US20090068143A1, “ORALLY EFFECTIVE C[…]” (priority 2005, published 2009).

Settings: in vivo; cited from earlier work

B1: IFN-β-1b: beta interferon product to which patients develop NAbs (protein, UniProt P01574 22-187, looked up, variant C17S)
Interferon beta: MSYNLLGFLQRSSNFQSQKLLWQLNGRLEYCLKDRMNFDIPEEIKQLQQFQKEDAALTIYEMLQNIFAIFRQDSSSTGWNETIVENLLANVYHQINHLKTVLEEKLEKEDFTRGKLMSSLHLKRYYGRILHYLKAKEYSHCAWTIVRVEILRNFYFINRLTGYLRN
- patients developing neutralizing antibodies (NAbs): Twenty-eight to forty-seven
